Consider one substance from publication PMC2570549.

Experiment [1] deals with human thrombin (human).
Experiment [2] deals with human thrombin (human). This is another data set of the same source.

Substance “Serp-1, secreted myxoma viral serpin (recombinant) (from UniProt P12393 1-369) (natural protein)” had an inhibition of thrombin (0.125 NIH units) by Serp-1 at 500 ng over 1 to 20 minutes, no heparin, discontinuous chromogenic assay in experiment [1] of 86%. Also, in experiment [2], the inhibition of thrombin activity (chromogenic substrate S-2238), 19 ng Serp-1 in the presence of heparin (0.2 IU), thrombin 0.002 NIH units worked out at 75%; the inhibition of thrombin activity (chromogenic substrate S-2238), no heparin, thrombin 0.002 NIH units, Serp-1 1250, 600 and 300 ng (75%, 65%, 25%); no inhibition at or below 150 ng came to 75%.
